The target in the experiment is T1, human FcRn/b2M (human, UniProt P61769 21-119, biotinylated).
T1 construct: bought recombinant biotinylated protein (ACRO FCM-H82W4 or Immunitrack ITF01); also called hFcRn; hFcRn/hb2M
As to the kind of experiment: SPR pH 6.0.

T1 sequence (chain, as listed by the source limits assumed, chain 1 of 2): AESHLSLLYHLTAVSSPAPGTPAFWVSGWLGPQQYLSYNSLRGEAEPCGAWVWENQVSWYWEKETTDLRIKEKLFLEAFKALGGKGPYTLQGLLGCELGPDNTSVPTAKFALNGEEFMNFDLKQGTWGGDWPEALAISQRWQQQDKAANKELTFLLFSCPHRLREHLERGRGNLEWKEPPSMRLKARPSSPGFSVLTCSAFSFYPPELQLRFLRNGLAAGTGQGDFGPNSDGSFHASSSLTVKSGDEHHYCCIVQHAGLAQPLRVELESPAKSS
T1 sequence (P61769 21-119 limits assumed, chain 2 of 2): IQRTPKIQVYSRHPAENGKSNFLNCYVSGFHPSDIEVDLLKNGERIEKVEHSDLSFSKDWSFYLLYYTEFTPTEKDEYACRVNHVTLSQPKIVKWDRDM

B1: T026301059 (VHH, name in Kabat numbering)
VHH: EVQLVESGGGVVQPGGSLRLSCAASGFTFSEYDMYWVRQAPGKGLEWVSAISQGGGSTDYADSVKGRFTISRDNSKNTLYLQMNSLRPEDTALYYCAADTLYTDLTSYSYWGQGTLVTVSS
notes: tagless
Consider B1, for which the koff was 0.039 s⁻¹.

B2: T026301089 (VHH, name in Kabat numbering)
VHH: EVQLVESGGGVVQPGGSLRLSCAASGFTFSSYAMYWVRQAPGKGLEWVSAISSGGGSTDYADSVKGRFTISRDNSKNTLYLQMNSLRPEDTALYYCAADTLYTDLTKYSYWGQGTLVTVSS
notes: tagless
Molecule B2 gave an off-rate constant (koff) of 0.028 s⁻¹.

B3: T026301086 (VHH, name in Kabat numbering)
VHH: EVQLVESGGGVVQPGGSLRLSCAASGFTFSEYDMYWVRQAPGKGLEWVSAISSGGGSTDYADSVKGRFTISRDNSKNTLYLQMNSLRPEDTALYYCAADTLYTDLTWYSYWGQGTLVTVSS
notes: tagless
Molecule B3 showed a koff of 0.013 s⁻¹.

B4: T026301112 (VHH, name in Kabat numbering)
VHH: EVQLVESGGGVVQPGGSLRLSCAASGFTFSEYDMYWVRQAPGKGLEWVSAISQGGGSTDYADSVKGRFTISRDNSKNTLYLQMNSLRPEDTALYYCAADTLYTSLTKYSYWGQGTLVTVSS
notes: tagless
Molecule B4 registered an off-rate constant (koff) of 0.0072 s⁻¹.

B5: T026301078 (VHH, name in Kabat numbering)
VHH: EVQLVESGGGVVQPGGSLRLSCAASGFTFSEYDMYWVRQAPGKGLEWVSAISQGGGSTDYADSVKGRFTISRDNSKNTLYLQMNSLRPEDTALYYCAADTLYTDLTWYSYWGQGTLVTVSS
notes: tagless
For B5, the koff worked out at 0.0095 s⁻¹.

B6: T026301097 (VHH, name in Kabat numbering)
VHH: EVQLVESGGGVVQPGGSLRLSCAASTFTFSEYAMYWVRQAPGKGLEWVSAISQGGGSTDYADSVKGRFTISRDNSKNTLYLQMNSLRPEDTALYYCAADTLYTSLTWYSYWGQGTLVTVSS
notes: tagless
For the molecule B6, the off-rate constant (koff) was 0.0067 s⁻¹.

B7: T026301094 (VHH, name in Kabat numbering)
VHH: EVQLVESGGGVVQPGGSLRLSCAASTFTFSEYDMYWVRQAPGKGLEWVSAISQGGGSTDYADSVKGRFTISRDNSKNTLYLQMNSLRPEDTALYYCAADTLYTSLTSYSYWGQGTLVTVSS
notes: tagless
Molecule B7 came in with a koff of 0.01 s⁻¹.

B8: T026301088 (VHH, name in Kabat numbering)
VHH: EVQLVESGGGVVQPGGSLRLSCAASGFTFSSYDMYWVRQAPGKGLEWVSAISSGGGSTDYADSVKGRFTISRDNSKNTLYLQMNSLRPEDTALYYCAADTLYTSLTKYSYWGQGTLVTVSS
notes: tagless
In turn, B8 returned an off-rate constant (koff) of 0.0093 s⁻¹.

B9: T026301081 (VHH, name in Kabat numbering)
VHH: EVQLVESGGGVVQPGGSLRLSCAASTFTFSSYAMYWVRQAPGKGLEWVSAISSGGGSTDYADSVKGRFTISRDNSKNTLYLQMNSLRPEDTALYYCAADTLYTSLTSYSYWGQGTLVTVSS
notes: tagless
Regarding B9, the koff worked out at 0.0088 s⁻¹.

B10: T026301085 (VHH, name in Kabat numbering)
VHH: EVQLVESGGGVVQPGGSLRLSCAASGFTFSSYAMYWVRQAPGKGLEWVSAISQGGGSTDYADSVKGRFTISRDNSKNTLYLQMNSLRPEDTALYYCAADTLYTDLTWYSYWGQGTLVTVSS
notes: tagless
B10 gave a dissociation rate constant (koff) of 0.0066 s⁻¹.

B11: T026301060 (VHH, name in Kabat numbering)
VHH: EVQLVESGGGVVQPGGSLRLSCAASGFTFSEYAMYWVRQAPGKGLEWVSAISSGGGSTDYADSVKGRFTISRDNSKNTLYLQMNSLRPEDTALYYCAADTLYTDLTSYSYWGQGTLVTVSS
notes: tagless
With B11, the koff came out at 0.034 s⁻¹.

B12: T026301084 (VHH, name in Kabat numbering)
VHH: EVQLVESGGGVVQPGGSLRLSCAASGFTFSSYAMYWVRQAPGKGLEWVSAISSGGGSTDYADSVKGRFTISRDNSKNTLYLQMNSLRPEDTALYYCAADTLYTDLTSYSYWGQGTLVTVSS
notes: tagless
B12 had a koff of 0.021 s⁻¹.

B13: T026301082 (VHH, name in Kabat numbering)
VHH: EVQLVESGGGVVQPGGSLRLSCAASTFTFSSYAMYWVRQAPGKGLEWVSAISSGGGSTDYADSVKGRFTISRDNSKNTLYLQMNSLRPEDTALYYCAADTLYTDLTSYSYWGQGTLVTVSS
notes: tagless
B13 had an off-rate (koff) of 0.054 s⁻¹.

B14: T026301107 (VHH, name in Kabat numbering)
VHH: EVQLVESGGGVVQPGGSLRLSCAASTFTFSSYDMYWVRQAPGKGLEWVSAISQGGGSTDYADSVKGRFTISRDNSKNTLYLQMNSLRPEDTALYYCAADTLYTSLTSYSYWGQGTLVTVSS
notes: tagless
On to B14, for which the dissociation rate constant (koff) was 0.0045 s⁻¹.

B15: T026301071 (VHH, name in Kabat numbering)
VHH: EVQLVESGGGVVQPGGSLRLSCAASTFTFSEYAMYWVRQAPGKGLEWVSAISSGGGSTDYADSVKGRFTISRDNSKNTLYLQMNSLRPEDTALYYCAADTLYTDLTSYSYWGQGTLVTVSS
notes: tagless
B15 yielded a koff of 0.049 s⁻¹.

B16: T026301110 (VHH, name in Kabat numbering)
VHH: EVQLVESGGGVVQPGGSLRLSCAASGFTFSEYAMYWVRQAPGKGLEWVSAISQGGGSTDYADSVKGRFTISRDNSKNTLYLQMNSLRPEDTALYYCAADTLYTDLTWYSYWGQGTLVTVSS
notes: tagless
On to B16, for which the off-rate constant (koff) was 0.014 s⁻¹.

B17: T026301083 (VHH, name in Kabat numbering)
VHH: EVQLVESGGGVVQPGGSLRLSCAASGFTFSEYAMYWVRQAPGKGLEWVSAISQGGGSTDYADSVKGRFTISRDNSKNTLYLQMNSLRPEDTALYYCAADTLYTDLTSYSYWGQGTLVTVSS
notes: tagless
With B17, the off-rate constant (koff) turned out to be 0.067 s⁻¹.

B18: T026301096 (VHH, name in Kabat numbering)
VHH: EVQLVESGGGVVQPGGSLRLSCAASGFTFSSYAMYWVRQAPGKGLEWVSAISQGGGSTDYADSVKGRFTISRDNSKNTLYLQMNSLRPEDTALYYCAADTLYTDLTSYSYWGQGTLVTVSS
notes: tagless
Molecule B18 registered a koff of 0.034 s⁻¹.

B19: T026301090 (VHH, name in Kabat numbering)
VHH: EVQLVESGGGVVQPGGSLRLSCAASTFTFSSYAMYWVRQAPGKGLEWVSAISQGGGSTDYADSVKGRFTISRDNSKNTLYLQMNSLRPEDTALYYCAADTLYTSLTKYSYWGQGTLVTVSS
notes: tagless
Consider B19, for which the koff turned out to be 0.033 s⁻¹.

B20: T026301072 (VHH, name in Kabat numbering)
VHH: EVQLVESGGGVVQPGGSLRLSCAASGFTFSSYDMYWVRQAPGKGLEWVSAISQGGGSTDYADSVKGRFTISRDNSKNTLYLQMNSLRPEDTALYYCAADTLYTDLTSYSYWGQGTLVTVSS
notes: tagless
As to B20, the koff worked out at 0.015 s⁻¹.

B21: T026301067 (VHH, name in Kabat numbering)
VHH: EVQLVESGGGVVQPGGSLRLSCAASTFTFSSYDMYWVRQAPGKGLEWVSAISQGGGSTDYADSVKGRFTISRDNSKNTLYLQMNSLRPEDTALYYCAADTLYTSLTKYSYWGQGTLVTVSS
notes: tagless
Turning to B21, the koff was 0.0061 s⁻¹.

B22: T026301074 (VHH, name in Kabat numbering)
VHH: EVQLVESGGGVVQPGGSLRLSCAASTFTFSEYAMYWVRQAPGKGLEWVSAISSGGGSTDYADSVKGRFTISRDNSKNTLYLQMNSLRPEDTALYYCAADTLYTDLTWYSYWGQGTLVTVSS
notes: tagless
For B22, the koff is 0.013 s⁻¹.

B23: T026301109 (VHH, name in Kabat numbering)
VHH: EVQLVESGGGVVQPGGSLRLSCAASTFTFSSYDMYWVRQAPGKGLEWVSAISQGGGSTDYADSVKGRFTISRDNSKNTLYLQMNSLRPEDTALYYCAADTLYTSLTWYSYWGQGTLVTVSS
notes: tagless
In turn, B23 showed a dissociation rate constant (koff) of 0.0013 s⁻¹.

As usually defined, the koff is the rate constant with which the complex falls apart. Read a low koff as a long-lived complex.
